In patent US5858973, “Transcription factor and uses therefor” (The General Hospital Corporation):

How the values were obtained:
[1] = biological target: T1, IDX-1 (GST fusion, full length) (Rattus norvegicus, UniProt P52947 SEQ:1-283); experiment: EMSA; data not shown; protein preparation not stated; conditions: tags: N-terminal GST (pGEX-KG), bacterially expressed
[2] = biological target: T1, IDX-1 (GST fusion, full length); experiment: EMSA; conditions: tags: N-terminal GST (pGEX-KG), bacterially expressed; label: 32P
Protocol: (§1) Electrophoretic mobility shift assays (EMSA) were performed as described (Ron et al., 1990, Mol. and Cell. Biol. 10:1023) using bacterially-expressed IDX-1 or nuclear extracts prepared from RIN1027-B2 cells (Dignam et al., 1983, supra). PCR was used to generate a bacterial expression vector encoding the full length IDX-1 protein fused to glutathione S-transferase(GST). An oligonucleotide amplimer was designed to create an NcoI site at the initiation methionine of the IDX-1 cDNA. This primer was used in conjunction with the T3 primer to amplify the IDX-1 cDNA insert from an IDX-1/pBS(KS) subclone. The PCR product was digested with NcoI and XhoI, gel-purified, and ligated into NcoI/XhoI-cut pGEX-KG (Pharmacia Biotech Inc., Piscataway, N.J.). Expression and purification of the GST/IDX-1 fusion protein was performed as described (Smith and Johnson, 1988, supra).
(§2) Nuclear extracts form RIN1027-B2 cells or purified bacterially-expressed GST/IDX-1 were incubated with the following ^32P-labelled double-stranded oligonucleotide probes: 1) INS1-FLAT, the Far-linked AT-rich element of the rat insulin 1 gene (German et al., 1992, Mol. Cell. Biol. 12:1777) (5'-[…]-3'); 2) SMS-TAAT1, a FLAT-like element (5'-[…] […]

[3] = biological target: T1, IDX-1 (GST fusion, full length); experiment: EMSA; several complexes; conditions: tags: N-terminal GST (pGEX-KG), bacterially expressed; label: 32P
Protocol: as §1, §2

[4] = biological target: IDX-1 (IDX-1/pBJ5 expressed in NIH-3T3) (Rattus norvegicus, UniProt P52947 SEQ:1-283); experiment: cell_activity; CAT reporter in NIH-3T3
IDX-1 (IDX-1/pBJ5 expressed in NIH-3T3), sequence (P52947 other isoform, or with tags, fused parts or gaps): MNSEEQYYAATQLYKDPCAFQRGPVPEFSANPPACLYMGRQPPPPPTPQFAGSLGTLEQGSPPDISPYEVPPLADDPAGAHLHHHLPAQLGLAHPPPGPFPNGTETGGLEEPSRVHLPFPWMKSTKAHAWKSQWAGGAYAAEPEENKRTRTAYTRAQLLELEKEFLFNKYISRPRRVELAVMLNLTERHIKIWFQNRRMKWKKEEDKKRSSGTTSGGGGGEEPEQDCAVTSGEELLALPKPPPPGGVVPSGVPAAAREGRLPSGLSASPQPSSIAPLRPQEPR
From the text: Several different reporter constructs were used in cotransfection experiments with IDX-1/pBJ5 expression vector. The SMS900CAT plasmid consists of nucleotides −900 to +54, relative to the transcription start site, of the rat somatostatin gene linked 5' to the coding sequence of the bacterial chloramphenicol acetyl transferase (CAT) gene (Powers et al., 1989, supra). The plasmid SMS900(Δ−250/−120)CAT is identical to SMS900CAT with the exception of an internal deletion between nucleotides −250 and −120. This deletion removes a putative transcriptional suppressor region located between nucleotides −237 and −189 of the rat somatostatin gene (Vallejo et al., in preparation). SMS(−900/−250) TKCAT contains −900 to −250 of the rat somatostatin gene linked 5' to the herpes simplex thymidine kinase promoter in the CAT reporter plasmid PUTKAT (Prost and Moore, 1986, Gene 45:107). The plasmids SMS900CAT(TAAT1mut), SMS900CAT(TAAT2mut) and SMS900CAT(UE-Bmut) were created using oligonucleotide-directed mutagenesis (Kunkel, 1985, Proc. Natl. Acad. Sci. USA 82:488) to introduce clustered nucleotide substitutions in the IDX-1 binding sites located at −450, −290, and —90, respectively, within the SMS900CAT reporter. For SMS-TAAT1, the central 5'-ATTAAT-3' was converted to 5'-GCCGGC-3'. […]

[5] = biological target: T1, IDX-1 (GST fusion, full length); experiment: EMSA; appears weaker than SMS-TAAT1; conditions: tags: N-terminal GST (pGEX-KG), bacterially expressed; label: 32P
Protocol: as §1, §2

T1 sequence (P52947 other isoform, or with tags, fused parts or gaps): as above

B1: SMS-TAAT2 mutant (dsDNA)
DNA 1: GATCCGATCTCAGCGGCCGATCATGCACCA
DNA 2: TGGTGCATGATCGGCCGCTGAGATCGGATC
modifications: [14-19]
- binding result [1]: no binding

B2: SMS-UE-B mutant (dsDNA)
DNA 1: GATCCGCGAGGTCGGCAGTGCGTAAAAGCACTGGTGA
DNA 2: TCACCAGTGCTTTTACGCACTGCCGACCTCGCGGATC
modifications: [12-17]
- binding result [1]: no binding

B3: SMS-UE-B (dsDNA)
DNA 1: GATCCGCGAGGCTAATGGTGCGTAAAAGCACTGGTGA
DNA 2: TCACCAGTGCTTTTACGCACCATTAGCCTCGCGGATC
- binding result [2]: binds

B4: INS1-FLAT (dsDNA)
DNA 1: GATCCTTGTTAATCTAATTACCCTAGGTCTAA
DNA 2: TTAGACCTAGGGTAATTAGATTAACAAGGATC
- binding result [3]: binds

B5: 6x SMS-TAAT1 in SMS65CAT (dsDNA)
DNA 1: GATCCCTGATTGCATATTAATTCTCAGATA
DNA 2: TATCTGAGAATTAATATGCAATCAGGGATC
- activity [4]: 34 fold

B6: SMS-TAAT1 mutant (dsDNA)
DNA 1: GATCCCTGATTGCATGCCGGCTCTCAGATA
DNA 2: TATCTGAGAGCCGGCATGCAATCAGGGATC
modifications: [16-21]
- binding result [1]: no binding

B7: SMS-PS (dsDNA)
DNA 1: GATCCAGGCAAGATTATTTGGTCA
DNA 2: TGACCAAATAATCTTGCCTGGATC
- binding result [2]: no binding

B8: SMS-TAAT2 (dsDNA)
DNA 1: GATCCGATCTCAGTAATTAATCATGCACCA
DNA 2: TGGTGCATGATTAATTACTGAGATCGGATC
- binding result [5]: binds
